Source: the domain aggregation screens of Martell et al. (2025)

Assay: soluble fraction after stress (log2 fold change); higher = more stays soluble; pooled small domains, quantitative proteomics
Conditions: stress: 75 degC
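Also: 20 min heating vs room temperature control held 20 min.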

| Sequence | soluble fraction (log2) |
| --- | --- |
| HMIDVGSKIRSLRKSKNISISTLAKNSDLSTGLISQIERNMVVPSIVAMWKISKALDINIGYFFE | -3.13 |
| HMIEDMQQYIKEIRQMVSGRLDMTRNLEDEEIRDTIAELVAEESRKQYMTLTEKREVIEGVFNSMR | -0.0831 |
| HMIEEIAVPEILGMQEEEAKAKIEGLGLVFNVTDRVKSNEYEKGEVMYQSVGPDDTTVKSGYPINVTISEG | 0.196 |
| HMIEEIPYSQFMSMLEEGKIDKAEIYQDSIIFSTKPDEQGKAGYYSIAYMKDNVLADRLYDAGVEFTPII | 0.293 |
| HMIEGEQVRLLRLLERQEGGMLPLGDKSPASDILLLTGMSKKTFKMAVGALYKAQMITMTPTSIKLVK | -3.18 |
| HMIEGETPEQTMERVSKDPEIVQILQDPVMQGILAQARENPAALQDHMKNPEVYKKINMLIAAGVIRT | 0.278 |
| HMIEGSSDWKPNMILDDGGDLTKIIHEEYQDLLDDIRGLSEETTTGVLRLYEMEKENSLAVPAINVND | 0.171 |
| HMIEKGSDALEKELRKNNLSINEFLTNKNIDIILDELKLKDIDDLYVNIALGKYTPNQIIKIVNK | -0.0502 |
| HMIELEGVISSVLAGTMFKVKLRGNGHEVLAHISGKMRKKFIRLVIGDAVKIEMSPYDMDKARIVYRI | -0.318 |
| HMIELTTDYKKRVVEALVSARENYSGSDSDFARKWSIDKTVYSRLKKGYQEGLLSVGKYIELGMELNVSSR | -1.87 |
| HMIENITIELNKKALALDFELNKDLPEGVLETIPTLVSLMVRFDPLTVSYHFLRDYIDALLESNLNVDL | -0.0886 |
| HMIENMQEYVRHIRAAVSDRLDLTREVEDDEIREVISQIVAEESRQNYLSLGERQTVIETVFNSMR | -0.339 |
| HMIERLVEFVHTLRHSGVRVSMAEAMDAAEALRHTPITERQIFKTALQSVLVKEHQDIPAFDAAFERFFL | -3.04 |
| HMIESLKGILHKKDPTIAIIDVGGVRLSVNITLSTYEKLEEINSSIELLTYFNVREDAMELYG | -0.468 |
| HMIETIIGAEGKVLETIDNFNQKGVVALAGKEWTARSADASIIPEGAKVSVVEISGVKLIVTQN | 0.251 |
| HMIETLGDATFKRLKAMILDGTLEPGTRLSEKKFADHLGVSRTPVREAIGQLVSEGLAKRSAGSAPVVSS | -0.0859 |
| HMIFSIIPGQIRLTKMEIADGYLVLYGFTPSKEIYNLHLNPALKSIFTSSETSFIPVSGGLKFMSTNKL | -2.35 |
| HMIGAKVLVNGQLHRDSYGEGPGQTESNATRLVNYINMKGSHPYHVTTLDGGWRGWVTADSVQV | 0.139 |
| HMIGDNNELFQKAQLTPREKEVALLLLQGETNSDIAKILYVGLSTVKKHISSIFEKTKVKSRTEFISKVR | -1.6 |
| HMIGDYALILNIKGGSDWYLGNRVELLFTDGTSKIVTTDKDYNAKKDMVPTQIVTYKVNDNGEYSLKALPT | -2.13 |
| HMIGEKLKEIREKTGMNKKEFAQYLGLKYTTYNNYETEAREPASDFLILISTKFDVSIDYLLGLQ | -1.15 |
| HMIGIEALAGEIDRVRQVLTGGGGLSDVQLFSQLKALNEIKAALGASPDPRAPELVQRVDQLLEAAFRS | 0.395 |
| HMIGIGSDVPNKLKPAIYSFGLVAVGEKSVIPDGVQIGKNTAVSGVTSKEDYPDGVLESGETLIKA | 0.186 |
| HMIGKLTSSKLAAIHKMKTNELLAHFTEKGFLNINDAGKYILTQQGKDVGAEFKTSQYGGYFLWPENIE | -0.666 |
| HMIGTPLSEWQKDAPEEITRDQIAELVILKFVTVEQLALASDAQLQRIGMGGVGLRERAKLYLNRK | -1.87 |
| HMIGVNMEKSTVEKFANELNLPIDLLLKQLESAGIKKTSGAEELLEADKSALLNYLQIEHGA | 0.725 |

| Sequence | soluble fraction (log2) |
| --- | --- |
| HMIGVQEFAMTYALTRRETEITQLIIQGKSNAMIAGELFISETTVKKHVSNIFEKTGVSRREELMVRVQAE | -1.98 |
| HMIHANGLTDRQEMILEFIRSYISENNYPPSVREIGKGVGLASSASVHNNMKKLASLGFLNWDTD | -1.93 |
| HMIHFDHPERSILDTMLYEKKGMTAQSARNRLAAYQFQGEDVFKPVSVLSGGELSRITLAIKNAMADK | -0.36 |
| HMIHQPNNETTRNLIAGVVKKSLSVWETRVQVDGVDVTTAKDNLAEVHINIRYRLRHNQTPASLGLRLNLG | -0.0232 |
| HMIHSEDMDDHILGHKLVDQYLNKHIEFDNIKKAWNYHTVAIKKFGRYPHRNKILKRESTIEEIDFLKQP | 0.252 |
| HMIHSEEIQDHIFVKQLGEVFLRNHINYENIMKSWDDHTNVIKRFRRYPHRNKILNRESTIDEISFLKE | 0.176 |
| HMIIDTELMTRVMKFGFSQADASDLVAQHSDDLLRTAISRVEARAESKGMTPLETPAGYFRWTLQDLVRNP | -2.04 |
| HMIIIMKKSATNSEVRKVIERAEKEGLTVQVNQLEKQQVLGLVGDTRLIQDVAFLRYEGVENVERI | -2.37 |
| HMIILYTDEQQRIIDRLNEFIGEQPSQNEAAKLLGISAPILTNLRKGTYTGTVDKFMNKLAAYFNIKADLG | -1.3 |
| HMIIMVNLYQIWDKEVQGLDSVGAKPEQIEARRQAIAAHFESKARQAGMSSKDIYATLDNFDTYSRQKTS | -2.26 |
| HMIINFDAIRLTTELNKYNRHKAIPNSFFDGTFTILDVRDLYDSLSPKVQKIADTLIEQYNVDVKQ | -1.82 |
| HMIISMKKGATPQEISHVRKLIEELGYKVHESQGSERMVFGAIGDERSKHRLTSLEAQPGVEKVIPILA | 0.0278 |
| HMIISMKKTATKEQIAHVRELIEGMGYKAHMSVGAERVIFGAIGDERGKERLVSLEAQPGVEKVIPIL | -0.445 |
| HMIITLNIENLKRARENAGLTQTQAAQKIGVSDGTYKNYEQGKREPNGDKIVTIANAFGVTTDYLLGR | -0.475 |
| HMIIVMRKGATEAQVNDIVERVRAAGFGVHLSQGEERTIIGAIGGDRAVLADLNLEAAPGVERVTPIS | -0.176 |
| HMIIYGLNPVKDFINLFPNKISTLFISKNKLSDSEMKSVVNINTVYVSDAELKRITGTTKHQSLAAEID | -1.2 |
| HMIKILGSAYRHGLDDDDILRAWNYHIQEFFEGEDPEKIVRLGFDTHGRLLEIGGEIYPGGGEKIFHAM | -0.733 |
| HMIKITLPDGSVKEYKKGITPAEVAQSISEGLARNVISASYNGKTIETVTPLTTDGSLVLYTWDSPEGK | 0.0404 |
| HMIKLTVRQQEILDLIARSIDQTGFPPTRAEIAAELGFKSVNAAEEHLQALARKGVIEMVPGISRGIRLVQ | -1.48 |
| HMIKRNPLDEIEGVGPGRKKALLHAFGSAKGVSRASVVDLVKVEGVSQALAERIHDFFHPATR | -0.299 |
| HMIKSIRELAEVITLWKNQGKTILIAEHRLSYLMDLADRVLYMKDGQIENDFSMADFRKIPPDEISRMGLR | 0.103 |
| HMIKVAANESNRSDVLEIVRLFRVRVVDVNPESLTIEATGAEGKIDALLGLLEHYGVIELVRSGAVAVT | -1.86 |
| HMILESREKYLGEVLEVLVEEEKEGEYFGYSQNYLRVKFKLEEKNLINQLINIKIKSIEDDILIGEKEN | -3.46 |
| HMILKNVTSDLANKRLDKVASILFQTYSRTQIKKWILEGRVLVNGEISNPKDHVHENDEIEINPI | -1.9 |
| HMIMISKSFEINEDNINKRLDIFLTENLDGLSRGIVQKYISLEQITVNKESSHKDYRLKLDDFIEVKIQAH | -4 |
| HMIMNDIQAKVLEIAETKDLGSITYYRLSKMLGVDHPYRVKYAIDKLIEKGLLTAKSDGSITKAI | -1.47 |

| Sequence | soluble fraction (log2) |
| --- | --- |
| HMIMTTKVSGIMFDKFNPSAILNINGMDYLVRSGDIINGYKILSIGQETVTVQYGANVYKASVG | -4.48 |
| HMIMVAGHLQIKKGKYYMVLELKSESGERKTKWISTGLSAKGNKRKAEAMLEEARENYQSTDA | -1.13 |
| HMINIFKVKKAMEEIFASEWEDSPYTDQKISQILWSRGFSVSTGLVEKYRGQMGVPDANSRLNLN | -2.49 |
| HMINIGANIRAIRKQKNIKQVDLVRLLQLEGVEITRETLVKIESGVQHIKASQLRGIRDALGTTYDELL | -2.88 |
| HMINITALVKQLGGVDISKFNSAFKLLQQGKPLNTISNKVMADTFVALMKNSDEALNTKFRAAFKKI | -0.441 |
| HMINKIANLSAELRMEGLPVSIRSTQAAVKIYMDLGGDDRNLLKTALMSIYVKDRYDIPKFNKVFEKLFA | -1.66 |
| HMINKQPKDYEYFLEKWHFTQTEKHQLHNLILKLNIRYPNKDFLKITENLDNGKLVLKKLEERLSKT | -1.33 |
| HMINNINKLPETQFIKLFANIFENSQFIAVALYKKKGDGFSDFKDLINKIMDIFENTTKEKKLKILNA | -0.381 |
| HMINPASEKQLSFANSLIAKKEGGTETLNHYLHNRKVSSLEELDRKDVSEIINALKFAKEVT | 0.641 |
| HMINRPVYVPLYTNLDVKDAAEIAEKLEENNIAYKLEDQGETILVNPEQKYKVRLMLAQEGLPKG | 0.0786 |
| HMINSFDYLQAIFTELMKSQSKMTNQDAAKRLFMQGKVAVSNRDREGLRMVLAQLVTLLPKEELGGLSTVS | -1.38 |
| HMIPESVQGIEEFLATGALKGIGKKTAAAIVHKFGKDTLRIMEEEPERLAEVSGIGEKKAAAIGEAFALH | 0.134 |
| HMIPNPMTDRELEVLGLLASGKTYKQVARALDLSQSTVRNHLHNVYHKLNVVDRAQAVIVSRENGW | -0.379 |
| HMIPPGTITIEGAITKVPVFLDGKQIGTVPLTKEDVEPGKYRIRVLGVGRVITIDPGEKENVLFSGEDLGL | -0.0563 |
| HMIPTDPNGDLIKILYTSDQINELYARAKLNDVEDLFLDWTKNVLGESNFEETGPTKNEYLIPQ | -0.0775 |
| HMIPTTELAERLGTTKVANMIMLGALIKASGIISFDDMIKNLGELLGEGKAKLIKLNKEALEVGFN | 0.139 |
| HMIPYSDLLKLLSNDAMPKFRNKDGWAKIHALETYLASRWSYQEYGFASFTVLLETVHNAEIRNDSVRLM | -0.479 |
| HMIQTMVVTDLKNGTIFKENGHPFIVLKYEHIKVSRGSAQVRVKMKNLITGQVLEKSWQSTAHVDDT | -3.24 |
| HMIRMPNLIGLSVRSAEQQLVIAGLKKGIVHQVNDPRLKEVIDMQALGHKITAGSSIPKGTEVDLYIGNGT | -0.944 |
| HMISAVDLMAARRKIEAGITNLQPGQAFTLPNKVGWVKRMTGGSYFIQGNGGYTASVRTISEAIQAAAMLL | -3.11 |
| HMISDQENDLNLKHLFDTADQNKDGLILESELKMLMTNLEINKETYDTVMKQITPAGMDYKTFSSL | 0.293 |
| HMISFLNFVRKEIDASQLKDSTKQNHLTTIGLLQSFKPSIEFKDLNYNFITSFEKYLYDAGYQM | 0.0114 |
| HMISKQQRQALILDIIQKQSITSQEALLTELQRHHVMTTQTTVSRDIRALGIVRIKDVNGELSYQQLQ | -2.69 |
| HMISKRFQIDEDNSNKRIDIFLTQSLDSISRGIVQQLILENKVEVNGGPVKRNYLIKIGDVIDVKIDL | -2.96 |
